Source: paper PMC12136796

What was measured:
Test in all cases: co-IP
[1] = target: mGFP-PICK1 5K-E (mouse) (UniProt Q62083)
[2] = target: mGFP-KIBRA ΔC2 (mouse) (UniProt Q5SXA9)
[3] = target: mCherry-PICK1 WT (mouse) (UniProt Q62083)
[4] = target: mGFP-KIBRA ΔCCL (mouse) (UniProt Q5SXA9)
[5] = target: mGFP-KIBRA ΔαBR (mouse) (UniProt Q5SXA9)
[6] = target: mCherry-KIBRA WT (mouse) (UniProt Q5SXA9)
Sequence of mCherry-KIBRA WT (mouse) (Q5SXA9 whole entry): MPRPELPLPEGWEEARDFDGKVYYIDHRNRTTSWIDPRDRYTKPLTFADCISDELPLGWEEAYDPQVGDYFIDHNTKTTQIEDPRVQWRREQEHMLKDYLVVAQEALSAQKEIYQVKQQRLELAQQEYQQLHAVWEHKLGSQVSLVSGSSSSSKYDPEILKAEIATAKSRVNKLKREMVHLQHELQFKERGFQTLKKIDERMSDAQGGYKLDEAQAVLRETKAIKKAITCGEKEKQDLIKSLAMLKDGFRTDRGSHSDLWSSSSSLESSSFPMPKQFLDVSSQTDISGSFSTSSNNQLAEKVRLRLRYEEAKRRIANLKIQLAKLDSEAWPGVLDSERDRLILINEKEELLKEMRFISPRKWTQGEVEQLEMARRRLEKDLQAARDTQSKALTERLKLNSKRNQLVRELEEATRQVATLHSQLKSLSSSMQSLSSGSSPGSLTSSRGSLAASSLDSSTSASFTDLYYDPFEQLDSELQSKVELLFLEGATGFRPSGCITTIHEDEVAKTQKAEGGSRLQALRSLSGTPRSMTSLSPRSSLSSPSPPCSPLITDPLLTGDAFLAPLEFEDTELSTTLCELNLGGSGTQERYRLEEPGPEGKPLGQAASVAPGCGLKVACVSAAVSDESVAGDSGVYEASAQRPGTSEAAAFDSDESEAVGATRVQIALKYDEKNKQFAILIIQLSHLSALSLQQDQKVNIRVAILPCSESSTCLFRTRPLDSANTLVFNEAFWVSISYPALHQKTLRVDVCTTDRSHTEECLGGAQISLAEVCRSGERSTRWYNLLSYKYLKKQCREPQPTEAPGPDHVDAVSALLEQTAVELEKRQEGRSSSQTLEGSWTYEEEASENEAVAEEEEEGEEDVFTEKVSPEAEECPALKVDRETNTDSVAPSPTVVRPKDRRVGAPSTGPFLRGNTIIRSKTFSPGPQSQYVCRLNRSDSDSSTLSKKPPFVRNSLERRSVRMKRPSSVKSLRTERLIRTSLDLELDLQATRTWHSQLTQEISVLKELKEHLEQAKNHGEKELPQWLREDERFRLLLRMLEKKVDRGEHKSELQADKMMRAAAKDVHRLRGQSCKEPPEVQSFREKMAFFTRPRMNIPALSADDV

Sequence of mCherry-PICK1 WT (mouse) (Q62083 whole entry): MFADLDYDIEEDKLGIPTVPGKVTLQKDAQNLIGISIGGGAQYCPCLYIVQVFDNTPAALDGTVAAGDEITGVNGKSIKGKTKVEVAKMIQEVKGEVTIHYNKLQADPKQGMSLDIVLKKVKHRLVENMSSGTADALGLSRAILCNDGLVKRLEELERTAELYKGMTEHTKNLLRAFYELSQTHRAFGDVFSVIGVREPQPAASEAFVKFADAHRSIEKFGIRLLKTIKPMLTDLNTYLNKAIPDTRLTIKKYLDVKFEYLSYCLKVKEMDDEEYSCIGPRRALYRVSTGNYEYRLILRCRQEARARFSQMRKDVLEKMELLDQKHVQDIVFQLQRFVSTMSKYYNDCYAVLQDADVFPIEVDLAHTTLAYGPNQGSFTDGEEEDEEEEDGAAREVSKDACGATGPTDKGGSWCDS
Sequence of mGFP-PICK1 5K-E (mouse) (Q62083 whole entry): as above
Sequence of mGFP-KIBRA ΔαBR (Q5SXA9 whole entry, stated change not applied): as the sequence (Q5SXA9 whole entry) above
Sequence of mGFP-KIBRA ΔCCL (Q5SXA9 whole entry, stated change not applied): as the sequence (Q5SXA9 whole entry) above
Sequence of mGFP-KIBRA ΔC2 (Q5SXA9 whole entry, stated change not applied): as the sequence (Q5SXA9 whole entry) above
Sequence of mGFP-PICK1 KD-AA (Q62083 whole entry): as the sequence (Q62083 whole entry) above
Sequence of mGFP-PICK1 BAR (domain or fragment) (Q62083 whole entry, the tested form may be a part): as the sequence (Q62083 whole entry) above
Sequence of Myc-GluA2 (P19491 22-883): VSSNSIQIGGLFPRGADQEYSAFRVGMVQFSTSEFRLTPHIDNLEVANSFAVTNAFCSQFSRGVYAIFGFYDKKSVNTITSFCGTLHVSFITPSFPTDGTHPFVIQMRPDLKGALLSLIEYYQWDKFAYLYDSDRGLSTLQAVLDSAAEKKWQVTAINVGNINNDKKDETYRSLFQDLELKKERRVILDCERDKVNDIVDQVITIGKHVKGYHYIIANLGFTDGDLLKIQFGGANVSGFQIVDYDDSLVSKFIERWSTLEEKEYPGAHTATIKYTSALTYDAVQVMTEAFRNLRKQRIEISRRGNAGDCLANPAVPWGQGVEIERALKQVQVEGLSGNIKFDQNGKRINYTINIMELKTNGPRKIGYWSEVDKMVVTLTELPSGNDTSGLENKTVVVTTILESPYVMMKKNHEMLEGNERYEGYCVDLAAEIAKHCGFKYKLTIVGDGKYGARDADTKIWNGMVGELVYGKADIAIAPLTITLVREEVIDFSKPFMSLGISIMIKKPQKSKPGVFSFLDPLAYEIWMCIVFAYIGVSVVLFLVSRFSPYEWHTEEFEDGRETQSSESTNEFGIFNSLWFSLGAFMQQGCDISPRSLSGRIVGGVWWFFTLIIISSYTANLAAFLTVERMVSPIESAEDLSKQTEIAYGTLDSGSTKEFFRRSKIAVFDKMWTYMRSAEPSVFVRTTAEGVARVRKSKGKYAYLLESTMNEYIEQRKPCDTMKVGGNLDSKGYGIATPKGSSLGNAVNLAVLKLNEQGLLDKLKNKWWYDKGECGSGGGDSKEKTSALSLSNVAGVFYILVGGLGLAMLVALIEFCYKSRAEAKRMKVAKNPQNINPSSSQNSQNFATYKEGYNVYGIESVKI
Sequence of mCherry-KIBRA WT (Q5SXA9 whole entry): as the sequence (Q5SXA9 whole entry) above
Sequence of mGFP-KIBRA ΔWW (Q5SXA9 whole entry, stated change not applied): as the sequence (Q5SXA9 whole entry) above

Myc-GluA2 (from UniProt P19491 22-883) (receptor)
co-precipitated GluA2 relative to PICK1 WT (mCherry-KIBRA co-expressed) [1]: 0.27 fold of WT

mCherry-KIBRA WT (from UniProt Q5SXA9 1-1104) (natural protein)
co-precipitated KIBRA relative to PICK1 WT [1]: 0.63 fold of WT

mGFP-KIBRA ΔC2 (from UniProt Q5SXA9 1-1104) (natural protein)
co-precipitated mGFP-KIBRA relative to KIBRA WT [2]: 1.36 fold of WT | co-precipitated KIBRA relative to KIBRA WT [3]: 1.29 fold of WT

mGFP-KIBRA ΔCCL (from UniProt Q5SXA9 1-1104) (natural protein)
co-precipitated mGFP-KIBRA relative to KIBRA WT [4]: 1.6 fold of WT | co-precipitated KIBRA relative to KIBRA WT [3]: 1.48 fold of WT

mGFP-KIBRA ΔWW (from UniProt Q5SXA9 1-1104) (natural protein)
co-precipitated KIBRA relative to KIBRA WT [3]: 1.79 fold of WT

mGFP-KIBRA ΔαBR (from UniProt Q5SXA9 1-1104) (natural protein)
co-precipitated KIBRA relative to KIBRA WT [3]: 1.94 fold of WT | co-precipitated mGFP-KIBRA relative to KIBRA WT [5]: 1.55 fold of WT

mGFP-PICK1 BAR (domain or fragment)
co-precipitated PICK1 relative to PICK1 WT [6]: 1.62 fold of WT

mGFP-PICK1 KD-AA (from UniProt Q62083 1-416) (natural protein)
co-precipitated PICK1 relative to PICK1 WT [6]: 0.81 fold of WT
